Here are results for one substance from patent US20240327489A1.

For assay [1], the target named is putative Btnl2 receptor on activated CD4+ T cells. The assay can be described thus: cell-based or functional assay.
For assay [2] the target is unchanged. The assay can be described thus: flow cytometry, Fc-fusion staining of activated mouse CD4+ T cells at 72 hours. On the technique in general: Flow cytometry measures light scatter and fluorescence of single cells or particles in a stream.

As for “mouse Btnl2-Fc (from UniProt O70355 24-454) (Fc fusion)”, the cytokine production of activated CD4+ T cells after 72 hours of culture in assay [1] is more than 40%. In assay [2], this substance returned a decrease in binding with CD28 co-stimulation (α-CD3/α-CD28 against α-CD3 alone) of 50%.
